From article PMC6350781 (Cell reports, 2018) come the findings set out here.

Common to all, as to test: pull-down
For assay [1], the target named is T1, GST-Fkbp5 (UniProt Q64378 1-456).
T1 sequence (looked up): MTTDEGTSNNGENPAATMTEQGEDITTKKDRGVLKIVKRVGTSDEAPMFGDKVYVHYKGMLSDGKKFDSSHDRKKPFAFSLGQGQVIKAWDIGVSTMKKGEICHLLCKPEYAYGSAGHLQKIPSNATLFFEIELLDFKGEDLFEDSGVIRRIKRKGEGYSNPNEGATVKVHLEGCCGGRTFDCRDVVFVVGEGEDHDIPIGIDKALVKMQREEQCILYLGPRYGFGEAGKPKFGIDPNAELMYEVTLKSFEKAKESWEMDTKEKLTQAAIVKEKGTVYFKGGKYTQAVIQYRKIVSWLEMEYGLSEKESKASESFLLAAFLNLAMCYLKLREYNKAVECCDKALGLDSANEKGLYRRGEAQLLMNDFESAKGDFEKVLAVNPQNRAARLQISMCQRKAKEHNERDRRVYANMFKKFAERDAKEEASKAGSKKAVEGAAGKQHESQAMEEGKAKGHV

Assay [2] addresses T2, GST-Fkbp5-Δ1 (UniProt Q64378 1-456, deletion of amino acids 50-138).
T2 sequence (looked up): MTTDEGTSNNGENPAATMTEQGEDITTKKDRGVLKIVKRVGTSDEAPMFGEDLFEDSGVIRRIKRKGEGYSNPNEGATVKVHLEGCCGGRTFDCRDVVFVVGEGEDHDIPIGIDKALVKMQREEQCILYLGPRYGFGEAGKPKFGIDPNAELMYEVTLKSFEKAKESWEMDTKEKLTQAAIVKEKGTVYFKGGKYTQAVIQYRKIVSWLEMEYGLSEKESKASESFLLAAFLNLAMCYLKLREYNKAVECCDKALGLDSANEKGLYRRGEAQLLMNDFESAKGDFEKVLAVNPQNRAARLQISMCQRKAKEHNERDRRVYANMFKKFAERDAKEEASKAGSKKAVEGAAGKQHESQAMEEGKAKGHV

Assay [3] deals with T3, GST-Fkbp5-Δ2 (UniProt Q64378 1-456, deletion of amino acids 165-251).
T3 sequence (looked up): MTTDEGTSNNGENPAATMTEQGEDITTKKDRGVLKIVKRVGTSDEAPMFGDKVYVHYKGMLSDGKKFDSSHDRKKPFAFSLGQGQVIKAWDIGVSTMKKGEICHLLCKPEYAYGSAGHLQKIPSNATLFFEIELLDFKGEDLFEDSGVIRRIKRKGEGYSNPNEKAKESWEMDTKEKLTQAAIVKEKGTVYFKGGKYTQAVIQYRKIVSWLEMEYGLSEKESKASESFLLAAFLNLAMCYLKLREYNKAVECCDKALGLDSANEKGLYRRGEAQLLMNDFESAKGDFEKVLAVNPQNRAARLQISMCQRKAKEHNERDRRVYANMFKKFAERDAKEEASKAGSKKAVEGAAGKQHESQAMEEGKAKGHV

The target of assay [4] is T4, GST-Fkbp5-W90L (UniProt Q64378 1-456, W90L).
T4 sequence (looked up): T1 sequence (looked up) with W90L

The target of assay [5] is T5, GST-Fkbp5-F130Y (UniProt Q64378 1-456, F130Y).
T5 sequence (looked up): T1 sequence (looked up) with F130Y

Positions count from the first letter of the chain named.

B1: Cdk4-6×His (natural protein, UniProt P30285 1-303, looked up)
chain: MAATRYEPVAEIGVGAYGTVYKARDPHSGHFVALKSVRVPNGGAAGGGLPVSTVREVALLRRLEAFEHPNVVRLMDVCATSRTDRDIKVTLVFEHIDQDLRTYLDKAPPPGLPVETIKDLMRQFLSGLDFLHANCIVHRDLKPENILVTSNGTVKLADFGLARIYSYQMALTPVVVTLWYRAPEVLLQSTYATPVDMWSVGCIFAEMFRRKPLFCGNSEADQLGKIFDLIGLPPEDDWPREVSLPRGAFAPRGPRPVQSVVPEMEESGAQLLLEMLTFNPHKRISAFRALQHSYLHKEESDAE
B1: the binding result in assay [1], in assay [2], in assay [3], in assay [4] and in assay [5] was “binds” in each case.

B2: Cdk4-Δ2-6×His (natural protein, UniProt P30285 1-303, looked up)
chain: MAATRYEPVAEIGVGAYGTVYKARDPHSGHFVALKSVRVPNGGAAGGGLPVSTVREVALLRRLEAFEHPNVVRLMDVCATSRTDRDIKVTLVFEHIDQDLGCIFAEMFRRKPLFCGNSEADQLGKIFDLIGLPPEDDWPREVSLPRGAFAPRGPRPVQSVVPEMEESGAQLLLEMLTFNPHKRISAFRALQHSYLHKEESDAE
With B2, the binding result in assay [1] is listed as “binds”.

B3: Cdk4-Δ3-6×His (domain or fragment, UniProt P30285 1-200, looked up)
chain: MAATRYEPVAEIGVGAYGTVYKARDPHSGHFVALKSVRVPNGGAAGGGLPVSTVREVALLRRLEAFEHPNVVRLMDVCATSRTDRDIKVTLVFEHIDQDLRTYLDKAPPPGLPVETIKDLMRQFLSGLDFLHANCIVHRDLKPENILVTSNGTVKLADFGLARIYSYQMALTPVVVTLWYRAPEVLLQSTYATPVDMWSV
Regarding B3, in assay [1], the binding result is reported as “binds”.

B4: Cdk4-Δ1-6×His (domain or fragment, UniProt P30285 101-303, looked up)
chain: RTYLDKAPPPGLPVETIKDLMRQFLSGLDFLHANCIVHRDLKPENILVTSNGTVKLADFGLARIYSYQMALTPVVVTLWYRAPEVLLQSTYATPVDMWSVGCIFAEMFRRKPLFCGNSEADQLGKIFDLIGLPPEDDWPREVSLPRGAFAPRGPRPVQSVVPEMEESGAQLLLEMLTFNPHKRISAFRALQHSYLHKEESDAE
For the molecule B4, in assay [1], the binding result is given as “binds”.
